Here are results for 1 molecule from article PMC6262872, “DARPins recognize mTFP1 as novel reagents for in vitro and in vivo protein manipulations” (Biology Open, 2018).

This test deals with T1, monomeric teal fluorescent protein 1 (mTFP1), N-terminally hexa-His-SBP-tagged.
T1 construct: mTFP1, engineered monomeric teal fluorescent protein (Ai et al., 2006); PDB 2HQK is the cited mTFP1 structure; also called SBP-tagged mTFP1; source: E. coli BL21(DE3), purified (Ni-NTA)
Briefly: fluorescence polarisation; fluorescence anisotropy; constant 15 nM mTFP1 titrated with a dilution series of DARPin; non-linear fit. The settings on record: both partners purified. In general terms: Polarisation of emitted light reports the rotation of a fluorescent probe.

B1: DARPin 1238_G01 (N-terminal His8, C-terminal FLAG) (designed binder)
chain: GSDLGKKLLEAARAGQDDEVRILMANGADVNAEDWMGATPLHLAAQSGHLEIVEVLLKTGADVNAHDAFGWTPLHLAASQGHLEIVEVLLKAGADVNATDMVGRTPLHLAARRGHLEIVEVLLKHGADVNAQDKFGKTPFDLAIDNGNEDIAEVLQKAAKLN
modifications: N-terminal MRGS-His8 and C-terminal FLAG tags left out; the GP cloning residues of the crystal construct are also left out
By Kd is commonly meant the concentration at which binding is half-saturated. Low readings indicate higher affinity, high ones lower affinity. B1 returned a Kd of around 88 nM.
